Laboratory results from US8481333B2 (IDEXX Laboratories, Inc., priority 2011, dated 2013).
Entries after “also recorded” stand apart in the source; their conditions may differ.

Columns and labels:
feline plasma = conditions: room temperature, up to 192 hours
[1] = type: in vitro ADME, feline
Experimental: For plasma extraction, 100 uL of plasma was precipitated by addition of 200 uL methanol in a 1.5 mL protein LoBind eppendorf tube. After vortexing for 10 seconds, the precipitate was pelleted by centrifugation at 13,000 rpm for 15 minutes at 10° C. using a benchtop centrifuge. The supernatant was transferred to a limited volume glass HPLC vial and analyzed by LC/MS as described in the following examples.
To characterize the fsNT-proBNP stable degradation products present after incubation in feline plasma, fsNT-proBNP was added to feline plasma at 1, 5, and 10 μg/mL and incubated at room temperature. At 0, 24, 48, 96, and 192 hours, 100 μL aliquots of the plasma were collected and combined with 200 μL of methanol to form a precipitate. After centrifugation, the supernatant was analyzed for stable peptides by LC/MS as described in Example 1.
The relative abundance of several fragments from the N-terminal, capture, and C-terminal regions were evaluated over time.

HPLGGPGPASEASAIQELLDGLRDTVSELQEAQMALGPLQQGHSPAESWEAQEEPPARVLAPHDNVLRALRRLGSSKM
fragment found (feline plasma): ASEASAIQELLDGLRDTVSEL, major; also recorded: DGLRDTVSEL; also recorded: LDGLRDTVSELQEAQM; also recorded: LGPLQQGHSPAESWEAQEEPPAR; also recorded: LGPLQQGHSPAESWEAQEEPPARVLAPHDNVLR, major; also recorded: LQQGHSPAESWEAQEEPPARVLAPHDNVLR, major; also recorded: VLAPHDNVLR

ASEASAIQELLDGLRDTVSEL (Preferred Feline NT-proBNP N-Terminal Peptide Plasma Degradent) [SEQ ID NO: 5]
prevalence of polypeptide fragments in plasma [1]: most prevalent

LQQGHSPAESWEAQEEPPARVLAPHDNVLR (Preferred Feline NT-proBNP C-Terminal Peptide Plasma Degradent) [SEQ ID NO:10]
prevalence of polypeptide fragments in plasma [1]: most prevalent

LGPLQQGHSPAESWEAQEEPPARVLAPHDNVLR (Preferred Feline NT-proBNP C-Terminal Peptide Plasma Degradent) [SEQ ID NO: 9]
prevalence of polypeptide fragments in plasma [1]: most prevalent
